These results are taken from the DeepSol protein solubility set.

A short description of the series: soluble on expression in E. coli; label from the status in PepcDB or PDB records.
Regarding “MYALFLLASLLGAALAGPVLGLKECTRGSAVWCQNVKTASDCGAVKHCLQTVWNKPTVKSLPCDICKDVVTAAGDMLKDNATEEEILVYLEKTCDWLPKPNMSASCKEIVDSYLPVILDIIKGEMSRPGEVCSALNLCESLQKHLAELNHQKQLESNKIPELDMTEVVAPFMANIPLLLYPQDGPRSKPQPKDNGDVCQDCIQMVTDIQTAVRTNSTFVQALVEHVKEECDRLGPGMADICKNYISQYSEIAIQMMMHMQPKEICALVGFCDEVKEMPMQTLVPAKVASKNVIPALELVEPIKKHEVPAKSDVYCEVCEFLVKEVTKLIDNNKTEKEILDAFDKMCSKLPKSLSEECQEVVDTYGSSILSILLEEVSPELVCSMLHLCSGTRLPALTVHVTQPKDGGFCEVCKKLVGYLDRNLEKNSTKQEILAALEKGCSFLPDPYQKQCDQFVAEYEPVLIEILVEVMDPSFVCLKIGACPSAHKPLLGTEKCIWGPSYWCQNTETAAQCNAVEHCKRHVWN”, the “soluble on expression in E. coli” value was “soluble”.

Consider “MGSDKIHHHHHHFDKIPTNPNLYHDVSSFSTADLTGKVQKIKLGSKFKIRSLITNKAKTPVFKLSNGRFIRASHDNVYEDIVLRRENVKGSYWLKKTFTVYQTPYVAGTKIANTKLTNYNKVHISQKAITKHGIYLKADGQGWINEKDLTVQDNRMEKVQALLTRKYNKPNYSIYVKQLKTRKTAGINEDKSMYSASVTKLPILYFIEKQIKDGRVKLTDKFKYIEQVNQFKGAYKVEGSGEMPKKADNKYYTVDSLLKAVTQHSDNVASNILGYYIAHQYDKTYQKTVLRVADVKWNMESRNVSSKTAANVMEALYSQKSPVISYLTSTEFDNTRISRDIAVPVAHKVGDAYDYKHDVAIIYADQPFILSVFTDKSSYEDISTIADDVYGILK”, for which the “soluble on expression in E. coli” value is recorded as “not soluble”. Consider “STEESMYTRIIKELPREGSSDVLVIKNEHVKKSDIWPSGGEMVVKDLTVKYMDDGNAVLENISFSISPGQRVGLLGRTGSGKSTLLSAFLRMLNIKGDIEIDGVSWNSVTLQEWRKAFGVITQKVFIFSGTFRQNLDPNGKHKDEEINKVADEVGLKSVIEQFPGQLNFTLVDGGYVLSHGHKQLMCLARSVLSKAKIILLDEPSAHLDPITYQVIRRVLKQAFAGCTVILCEHRIEAMLDCQRFLVIEESNVWQYDSLQALLSEKSIFQQAISSSEKMRFFQGRHSSKHKPRTQITALKEETEEEVQETRL”, for which the “soluble on expression in E. coli” value was “soluble”. Then “MSLSNYISIKGAKVNNLKNIDVNIPRNKLVVITGLSGSGKSSLAFDTLYAEGQRRYVESLSSYARQFLGRMSKPECDFIKGIPPAIAIEQKVNSRNPRSTVGTSTEIYEYLRLLYARVGKTYSPISGQLVKKHSIEDIVNCMLSFPKGTKYTVLTPMMPREGRTLLQQLEMDLKQGFTRIEVNREIVRIEDFLQQTAAEDKKQNIYLLVDRMTADDSKDSISRLTDSAETAMYEGDGNCLLRFYSADGSTQLFSFSTKFETDGIKFEEPNDQMFSFNSPLGACPECEGFGKVIGIDEHLVIPNRALSVYDGAVLCWRGEKMGEWLQEFIHEAPAHDFPIFAPYYELTQEQKDYLWHGPRNKACIDSFFKMLEENQYKIQYRVMLARYRGKTICPVCHGTRLKKEAGYVKVGGKSISQLVDLPIHDLKEFFRTLELDAHDTAIAKRILTEITNRINFLMDVGLGYLTLNRLSNSLSGGESQRINLATSLGSSLVGSLYILDEPSIGLHSRDTDRLIKVLRQLQELGNTVVVVEHDEEIIRAADYIIDIGPQAGRLGGQIVYQGNMNDLQRNEGHHHHHH”, with “soluble”; and “MRCKRHTVDFSSSIGVCASCLRERLFTLAVSTAASENDDNDHRHSRISPPPLLFPRSVSPYVAPRKSDAGTGTGAGGRDSVASSNNRFFATPQVVVQSSSSEKVFESDRSFKKKKSGLSRFSSFFRTRSDDYDSRRDSCDASTVFSQPSSATTSRSWFSKVISVRSKKQSTTNTCYIEDLIASESDHHHHNQNRPRQRYCRGMSPAGDSTTNDESVEESPGRLRRTPVMGTPGRKKTATIGIGRSVSGMAFCLSPLVRAKPNCSSNWKAKFPPDFGYSGELKSPAKPHLSTAASFCGNRSKKLVDLGRVDHRR”, with “soluble”; and “MAGVKYPGQDPVDLDIYQSSHMVDYQPYRKHKYSRVTPQEQAKLDAQLRDKEFYRPIPNPNPKLTDGYPAFKRPHMTAKDLGLPGFFPSQEHEATREDERKFTSTCHFTYPASHDLHLAQGDPNQVLQSADFPCLVDPKHQPAAEMAKGYLLLPGCPCLHCHIVKVPILNRWGPLMPFYQ”, with “not soluble”.

Take “MTAQTPRPYPSPYGRGNWYADTVTDVPASPPLDGDVAAEVCIIGAGFTGLGAALALGSRAVVLEAGRIGCAASGRNGGQVHTGQRRDQAWLEKTVGRDDALALWRLAEEARAHFASLVTAIDCDWRPGMIHARHKPGGEAEDADYLALMADRYGYDQLELIGETALAHELGTDVYHGGLADHGGGHVHPLKLAQGMAAQARAAGAVIHENTRADAWRREGGKIVVETGGGRVTCDQLILSGDGLLNRMAGPAQARVMPINNFIAVTAPLGALADEIIRSNAAVSDSRFVVNYFRKTPDGRLLFGGGENYRPGFPHDIAGLVRKNLAKIYPRLADVEITHAWGGTLGITFSRMPFVGEVAQGVRVAAGYSGQGVMLAPYVGKLLAEAALGETGPVDLLSRLPTPPFPGGRLLRWPLTVAGLSWYALRDRLLEHHHHHH”: the “soluble on expression in E. coli” value is listed as “not soluble”.

In the case of “MKKQLDQLTAYTPGLSPESLKKQYGIRGELHKLASNENVYGPSPKVKTAIQSHLDELYYYPESGSPKLREAISQQLNVDASRILFGAGLDEVILMISRAVLSPGDKIITSESTFGQYYHNAIVESADVIQVPLKDGGFDLDGMLQQIDNKTSLIWLCNPNNPTGTYFSHDELFNFLKRVPSDIPVLIDEAYVEFVTADDFPDTLKLQEDFDNAFLLRTFSKAYGLAGLRVGYVIASEDAIEKWNIIRPPFNVTRISEYAAIAALEDQEYLKEVTQKNSFERDKFYQIPQSQHFLPSQANFVFVKTSRSQALYDALLNVGCITRLFPNGVRITIGLPEQNNKMIEVLKHFEY”, the “soluble on expression in E. coli” value is reported as “not soluble”. Then “MKKVYFNHDGGVDDLVSLFLLLQMDNVELTGVSVIPADCYLEPAMSASRKIIDRFGKNTIEVAASNSRGKNPFPKDWRMHAFYVDALPILNESGKVVTHVAAKPAHHHLIETLLQTEEKTTLLFTGPLTDLARALYEAPIIENKIKRLVWMGGTFRTAGNVHEPEHDGTAEWNSFWDPEAVARVWEANIEIDLITLESTNQVPLTIDIREQWAKERKYIGIDFLGQCYAIVPPLVHFAKNSTYYLWDVLTAAFVGKADLAKVQTINSIVHTYGPSQGRTVETDDGRPVHVVYDVNHDRFFDYITRLAKKVST”, with “soluble”; and “MAPRVITLSPANTELAFAAGITPVGVSSYSDYPPQAQKIEQVSTWQGMNLERIVALKPDLVIAWRGGNAERQVDQLASLGIKVMWVDATSIEQIANALRQLAPWSPQPDKAEQAAQSLLDQYAQLKAQYADKPKKRVFLQFGINPPFTSGKESIQNQVLEVCGGENIFKDSRVPWPQVSREQVLARSPQAIVITGGPDQIPKIKQYWGEQLKIPVIPLTSDWFERASPRIILAAQQLCNALSQVDLEHHHHHH”, with “soluble”; and “MGSDKIHHHHHHMKKLFLVLAVLSLVLYGCLRTPPVVKDMVTTDGSLSDWGSKIKEDAADDSKWGADNELLKAGLLFDGANIYIAGEYVIGGDGNVNVFLVLIDLVGVTGAQTVSYTGLNDGNRNFTNPNGDIDLIVEVNQSNEYKVWRVSQDGSLTDITDQVTAQFGTGSTIAELKIPISEQVNQVKAVFAISGGTGGGNQWVGDFYPNQPDHDSAENGGIPQPAPVVNFVVCDKEGNVSEEINQTSEPEQPTESVIVVDGDLSDFGTPVATSTNPGGGNGANLYRLYVTYDATYLYIGFDTQNSGSWDVAYGIGIDTKPSGYTGDSDAWGRKISFGADYAVDYEIYFWWAGGSGLDSNNFCEWNGLDWNYRSIADAGGTFDYTGDTSSGLQTMEIAIPWSAIGGKQDVALIVWITGGSGSAVDSIPDDDSTIDNADEWNDSDTFTNLYLLQVN”, with “not soluble”. In the case of “MGSDKIHHHHHHMMSVQTTKLDAVPLGDRAPILEMRGISQIFPGVKALDGVNIALYPGEVTALIGENGAGKSTLVKILTGIYRPNEGEIVIDGSPVTFADAQAAIDAGVTAIHQETVLFDELSVAENIFLGHAPKTRFGFIDWNGINTKARALMDRLESKIDPTIRLKDLSIAQRHLVAIARALSVEARIVIMDEPTAALSRKEIDDLFRIVEGLKRDGKAILFISHKFDEVYEIAENYAVFRDGKMVGAGRLQSTPQDEIVRLMVGRDVHDAFPKIDVSIGAAVLSVSRYCHDTEFRDISFDLRKGEILGFYGLIGAGRSELCQSLFGITHPASGTVTLEGRALDIRSPADAIAAGIVYVPEERGRHGLALQMPIYQNMSLPSLARVSARGFLKVVNELALARHYAERLDLRAAALSVPVGTLSGGNQQKVVIGKWLATKPKVIILDEPTKGIDIGSKAAVHGFISELAAEGLSIIMISSELPEILGMSDRVMVMREGLQAGIFEREALTPEVLVRAATGNA” it was “not soluble”.

Regarding “MSLGSFTDVPANSQFYTEISWLASQGISTGWVEANGTSTYRPALAVNRDAMAAFMYRLAGSPAYTPPGTSPFIDVTPQTQFYKEIAWLASKGISTGWDEGNGAKSYRPLQTVNRDAMAAFMYRFAGSPAYNAPGASLFTDVVPQTQFYKEINWLASMNISTGWVEGNGTRTFRPVQSVNRDAMAAFMYRYNNAFPAEGHHHHHH”, the “soluble on expression in E. coli” value is recorded as “not soluble”. Then “MATHKLSFFEKLANTFGALYRHQAQQFPRRLAILKAVGKHELAPPRSADIPAIKADWAKLQKFIETKQYVNLSIKESLVYSAVALEVVFWFFVGEMIGRRYIFGYIVPANYVSKDTKAKVAEKKRLAALEA”, with “not soluble”; and “MGSDKIHHHHHHMRVGIIGGGFGLAVQAPIINTHPKMNVSAISTMIRHQVPKNLSTADDSPVHYTDWTKMLDLEELDLVFVSSLPIYHFEMVKYALNKGIHVVCEKPFTMNSVESEELLRLSSDTNTKVFIDFEWRYHPARQKVKELISEVGDILHFEYHISASQYQKLQTNKRGWMGEKQKFGGMLGALGTHMVDCLRWLIQDEIITINGFIHTHVPEGPEELRDSDDAFFIHGKIEGNCTFSIQLISGIHHGFGSNLKVFGSLGTINLIDDKTLFFGKASESLEEIKIETYTQTIPPLSSEAKAYYPAFYPFLDKVYENIIFNKSDKDLPTIVDGHENQIIIDNVLSN”, with “not soluble”; and “MSLTAYQASSQARVDAAMHTLFTAPSPELARLYEAMRYSVMNGGKRVRPLLAYAACEALGGKPEQANGAACAVELIHAYSLVHDDLPAMDDDDLRRGQPTTHKAFDEACAILAGDGLQSLAFSALLDPALSDASAEIRLRMVTTLAQAAGPAGMVGGQAIDLGSVGLKLDQQALEYMHRHKTGALIEASVILGALASGRAEKGELKALQTYAQAIGLAFQVQDDILDVESDTATLGKRQGADIARDKPTYPALLGLAAAKEYALELRDQALHALRPFDAAAEPLRELARYIVERRSEGHHHHHH”, with “soluble”. Then “MGSDKIHHHHHHMYNVGGVVLKRYFVAPGRINVIGEHTDYNEGFVLPVAIDKYVLLSVEKTSGSKISLSSMGREPVSFDESKIQKTGDWSDYLKGVLWVLKDELGTEFGGMSIEINSNLPEGAGLSSSAAVEVAMIVALNSSFNLKLDETELYDYARKAENEFVGVKCGVMDQFAAVMGKKDKAIFLDTLEMRYEYVPLELGDYTFLVFDSKVHHSLSKGGYNTRREEARKALEILGKSSYRDVSMVDLFPNRSRLGELYYRRALHVVSENMRVLESVKIMSNSNFENLGRLLIQSHESLALDYEVSCDETDFIVNTLREMKGVSGARMIGAGFGGSVLSLCEKEEEKKIVEVIKTRYKERFGIDLDSYEVRTSDGAREVDSSFSL”, with “not soluble”.
